{
  "source": "paper PMC2615600",
  "binders": {"B1": {"name": "sp1/sp1c+6 (15/21mer primer/template) (dsDNA)", "DNA 1": "GATCACAGTGAGTAC", "DNA 2": "TCTATTGTACTCACTGTGATC"}},
  "key": {"[1]": {"target": "T1, phi29 DNA polymerase G410C/P562C (Bacteriophage phi29, UniProt P03680 1-575, G410C;P562C)", "T1 sequence": "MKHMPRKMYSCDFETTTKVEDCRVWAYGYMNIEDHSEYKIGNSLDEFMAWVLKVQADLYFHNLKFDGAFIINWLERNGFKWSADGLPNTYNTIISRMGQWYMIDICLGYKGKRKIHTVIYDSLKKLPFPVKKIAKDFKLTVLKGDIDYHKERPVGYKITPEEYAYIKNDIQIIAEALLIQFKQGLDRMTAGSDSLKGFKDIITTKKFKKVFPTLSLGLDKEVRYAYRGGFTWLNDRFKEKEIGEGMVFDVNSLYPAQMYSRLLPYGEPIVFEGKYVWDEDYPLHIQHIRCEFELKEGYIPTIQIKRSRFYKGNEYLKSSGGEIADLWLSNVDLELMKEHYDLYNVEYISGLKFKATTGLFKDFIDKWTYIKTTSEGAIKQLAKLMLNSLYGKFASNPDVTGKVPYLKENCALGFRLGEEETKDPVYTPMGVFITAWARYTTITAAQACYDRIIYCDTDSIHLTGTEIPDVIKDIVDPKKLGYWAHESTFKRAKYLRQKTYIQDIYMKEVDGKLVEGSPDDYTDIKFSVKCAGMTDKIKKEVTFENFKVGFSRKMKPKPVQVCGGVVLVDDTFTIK", "assay": "EMSA"}, "[2]": {"target": "T2, phi29 DNA polymerase wild-type (Bacteriophage phi29, UniProt P03680 1-575)", "T2 sequence": "T1 sequence with C410G, C562P", "assay": "EMSA"}},
  "note": "Where a chain is given by its changes, count along the chain named.",
  "data": [
    {"binder": "B1", "values": [
      {"measurement": "binding signal", "setting": "[1]", "result": "3 % of wild-type (unit presumed)"},
      {"measurement": "binding result", "setting": "[2]", "result": "binds"}
    ]}
  ]
}
